Numbering of substitutions follows the chain as printed.
Key:
[1] = target: T1, PD-L1 on PD-L1 overexpressing CHO-K1 cells (Homo sapiens (Human), UniProt Q9NZQ7 19-290); experiment: cell-based or functional assay
[2] = target: T1, PD-L1 on PD-L1 overexpressing CHO-K1 …; experiment: flow cytometry on PD-L1 CHO-K1 cells
Experimental: (§1) Cells were harvested at 70-90% confluence on the day of the assay. Cells were collected by centrifugation at 200×g for 5 minutes and media was removed. Cells were resuspended at 2×10⁶ cells per mL in cold PBS. […] 50 μL per well of the antibody dilution was plated in a 96 well V-bottom plate (Costar 3897). 50 μL per well of cell suspension was added. Plates were placed at 4° C. for 45-60 minutes.
(§2) Cells were collected by centrifugation at 400×g for 7 minutes and primary antibody was removed. […] Plates were placed at 4° C. for 30 minutes.
(§3) Cells were collected by centrifugation at 400×g for 7 minutes and secondary antibody was removed. Cells were resuspended in 50 μL per well of PBS and analyzed by flow cytometry. Binding curves were calculated using the mean fluorescence intensity (MFI) of the FITC fluorescence signal on the cells.

Mouse PD-L1 = target: T2, Mouse PD-L1 (mouse, UniProt Q9EP73 19-238, biotinylated); experiment: Octet BLI; biotinylated mouse PD-L1 on streptavidin sensor
T2 construct: Bought, biotinylated and immobilized on a streptavidin sensor; also called mPD-L1; Acro Cat. No. PD1-M5220
T2 sequence (Q9EP73 19-238 limits assumed): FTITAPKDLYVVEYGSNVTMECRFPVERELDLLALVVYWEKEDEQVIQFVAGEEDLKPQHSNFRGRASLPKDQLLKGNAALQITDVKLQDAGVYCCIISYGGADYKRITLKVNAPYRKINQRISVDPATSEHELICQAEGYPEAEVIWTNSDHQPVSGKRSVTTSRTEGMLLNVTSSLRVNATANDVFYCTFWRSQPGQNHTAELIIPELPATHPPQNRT

[3] = target: T3, human PD-L1-His tag (extracellular domain) (human, UniProt Q9NZQ7 19-238); experiment: Octet BLI, monovalent; IgG on Fc capture sensor, soluble PD-L1-His
T3 construct: Bought from Acro Biosystems; also called Acro Cat. No. PD1H5229; soluble antigen
T3 sequence (Q9NZQ7 19-238): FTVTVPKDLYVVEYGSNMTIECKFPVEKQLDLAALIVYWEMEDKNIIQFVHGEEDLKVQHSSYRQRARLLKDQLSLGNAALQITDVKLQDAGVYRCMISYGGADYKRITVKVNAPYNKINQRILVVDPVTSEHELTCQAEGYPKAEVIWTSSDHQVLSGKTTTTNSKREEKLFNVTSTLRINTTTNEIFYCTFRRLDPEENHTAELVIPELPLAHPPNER
Text: The bivalent interaction of binders to the biotinylated human PD-L1 (see Example 1) immobilized on a streptavidin biosensor was monitored using an Octet (Pall ForteBio) instrument. To monitor monovalent interaction, full-length IgG molecule was immobilized to a Fc capture biosensor and its interaction with soluble antigen was monitored using an Octet instrument.
First, the antibodies were immobilized on an Fc capture sensor. In the next association step, the binding interaction of PD-L1 (Acro Cat. No. PD1H5229 (PD-L1-His tag)) to the immobilized IgG was measured. […] Octet kinetic analysis software was used to calculate the kinetic and equilibrium binding constants from the rate of association and dissociation curves. The analysis was performed using global curve fit where kinetic constants were derived simultaneously from all analyte concentration included in the experiment.

[4] = target: T1, PD-L1 on PD-L1 overexpressing CHO-K1 …; experiment: flow cytometry on PD-L1 overexpressing CHO-K1 cells, AF488 goat anti human IgG Fab secondary, MFI
Experimental: as §1, §2, §3

[5] = target: T1, PD-L1 on PD-L1 overexpressing CHO-K1 …; experiment: cell-based or functional assay; remark: listed apart in the source

T1 sequence (Q9NZQ7 19-290 limits assumed): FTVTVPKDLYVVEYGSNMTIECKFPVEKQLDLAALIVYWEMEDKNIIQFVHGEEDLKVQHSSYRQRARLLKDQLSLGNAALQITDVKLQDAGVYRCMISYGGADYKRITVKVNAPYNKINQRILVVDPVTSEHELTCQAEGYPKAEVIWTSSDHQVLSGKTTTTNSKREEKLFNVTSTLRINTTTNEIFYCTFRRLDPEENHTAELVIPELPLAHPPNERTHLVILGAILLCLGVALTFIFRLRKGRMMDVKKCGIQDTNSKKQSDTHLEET

B1: antibody designated P22 (antibody, human IgG1, kappa, V domains shown)
VH: EVQLVESGGGLVQPGGSLRLSCAASGFTFSSYYIHWVRQAPGKGLEWVAWITSHGYSTKYADSVKGRFTISADTSKNTAYLQMNSLRAEDTAVYYCARDSVIYGLDYWGQGTLVTAST
VL: DIQMTQSPSSLSASVGDRVTITCRASQSVSSAVAWYQQKPGKAPKLLIYSASSLYSGVPSRFSGSRSGTDFTLTISSLQPEDFATYYCQQYYTSPYTFGQGTKVEIKR
notes: Tested as full length IgG
[1]
  PD-1/PD-L1 Interaction Blocking Reporter Assay IC50: 2.43 nM
[2]
  EC50: 0.523 nM
Mouse PD-L1
  binding result: no binding
[3]
  KD: < 20 nM
  Kd: 17.2 nM

B2: antibody designated P24 (antibody, human IgG1, kappa, V domains shown)
VH: EVQLVESGGGLVQPGGSLRLSCAASGFTFDQYYIHWVRQAPGKGLEWVAEIYPAGSYTYYADSVKGRFTISADTSKNTAYLQMNSLRAEDTAVYYCARGPYSVRYALDYWGQGTLVTAST
VL: B1 VL with Y91V, Y92S, T93Y
notes: Tested as full length IgG
[1]
  PD-1/PD-L1 Interaction Blocking Reporter Assay IC50: 4.98 nM
[2]
  EC50: 1.62 nM
Mouse PD-L1
  binding result: no binding
[3]
  KD: < 20 nM
  Kd: 17.5 nM
[4]
  EC50 (read off the curve): ~2 nM

B3: antibody designated P31.2 (antibody, human IgG1, kappa, V domains shown)
VH: EVQLVESGGGLVQPGGSLRLSCAASGFTFSSYYIHWVRQAPGKGLEWVATISSGGGFTYYADSVKGRFTISADTSKNTAYLQMNSLRAEDTAVYYCARGYTLTPVLDYWGQGTLVTAST
VL: B1 VL with Y91F, Y92G, T93A, S94E, Y96I
notes: Tested as full length IgG
[1]
  PD-1/PD-L1 Interaction Blocking Reporter Assay IC50: 1.23 nM
[5]
  IC50 (read off the curve): ~2 nM
[2]
  EC50: 0.552 nM
Mouse PD-L1
  binding result: no binding
[3]
  KD: < 20 nM
  Kd: 13 nM
